The record followed here is PMC3174691 (Journal of molecular biology, 2008).

This assay concerns the target T1, E. coli RecB (E. coli, UniProt P08394 1-1180).
T1 sequence (looked up): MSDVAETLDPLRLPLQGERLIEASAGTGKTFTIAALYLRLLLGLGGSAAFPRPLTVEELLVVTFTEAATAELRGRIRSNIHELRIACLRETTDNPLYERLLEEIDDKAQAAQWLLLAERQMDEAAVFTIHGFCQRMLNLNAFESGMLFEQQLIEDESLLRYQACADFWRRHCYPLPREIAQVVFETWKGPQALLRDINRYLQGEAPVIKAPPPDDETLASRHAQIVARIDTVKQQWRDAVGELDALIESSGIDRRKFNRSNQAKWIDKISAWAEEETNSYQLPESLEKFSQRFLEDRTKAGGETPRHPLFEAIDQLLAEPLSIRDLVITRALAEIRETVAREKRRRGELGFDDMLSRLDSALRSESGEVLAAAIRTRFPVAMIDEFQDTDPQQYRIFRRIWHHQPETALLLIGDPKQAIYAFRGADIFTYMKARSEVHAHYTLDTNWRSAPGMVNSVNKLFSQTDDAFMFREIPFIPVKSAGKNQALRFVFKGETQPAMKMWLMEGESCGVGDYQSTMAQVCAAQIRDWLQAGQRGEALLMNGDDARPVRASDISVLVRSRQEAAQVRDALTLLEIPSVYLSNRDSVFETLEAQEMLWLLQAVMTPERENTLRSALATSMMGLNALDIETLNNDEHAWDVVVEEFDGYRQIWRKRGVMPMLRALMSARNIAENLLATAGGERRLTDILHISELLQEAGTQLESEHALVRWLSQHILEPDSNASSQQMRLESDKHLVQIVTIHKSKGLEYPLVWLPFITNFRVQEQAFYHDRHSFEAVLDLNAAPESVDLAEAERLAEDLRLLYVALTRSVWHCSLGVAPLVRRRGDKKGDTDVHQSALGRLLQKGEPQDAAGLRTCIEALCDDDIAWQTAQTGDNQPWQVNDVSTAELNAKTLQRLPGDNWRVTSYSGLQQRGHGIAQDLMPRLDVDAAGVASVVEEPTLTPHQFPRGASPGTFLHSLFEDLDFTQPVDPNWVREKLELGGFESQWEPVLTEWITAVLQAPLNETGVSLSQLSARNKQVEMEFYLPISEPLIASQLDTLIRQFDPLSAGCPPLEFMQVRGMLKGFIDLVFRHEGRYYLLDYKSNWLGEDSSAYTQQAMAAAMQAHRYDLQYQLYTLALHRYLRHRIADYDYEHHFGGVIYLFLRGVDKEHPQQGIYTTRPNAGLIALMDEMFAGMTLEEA
Kind of assay: reconstitution of the complex by mixing.

B1: E. coli RecC (natural protein, UniProt P07648 1-1122, looked up)
chain: MLRVYHSNRLDVLEALMEFIVERERLDDPFEPEMILVQSTGMAQWLQMTLSQKFGIAANIDFPLPASFIWDMFVRVLPEIPKESAFNKQSMSWKLMTLLPQLLEREDFTLLRHYLTDDSDKRKLFQLSSKAADLFDQYLVYRPDWLAQWETGHLVEGLGEAQAWQAPLWKALVEYTHQLGQPRWHRANLYQRFIETLESATTCPPGLPSRVFICGISALPPVYLQALQALGKHIEIHLLFTNPCRYYWGDIKDPAYLAKLLTRQRRHSFEDRELPLFRDSENAGQLFNSDGEQDVGNPLLASWGKLGRDYIYLLSDLESSQELDAFVDVTPDNLLHNIQSDILELENRAVAGVNIEEFSRSDNKRPLDPLDSSITFHVCHSPQREVEVLHDRLLAMLEEDPTLTPRDIIVMVADIDSYSPFIQAVFGSAPADRYLPYAISDRRARQSHPVLEAFISLLSLPDSRFVSEDVLALLDVPVLAARFDITEEGLRYLRQWVNESGIRWGIDDDNVRELELPATGQHTWRFGLTRMLLGYAMESAQGEWQSVLPYDESSGLIAELVGHLASLLMQLNIWRRGLAQERPLEEWLPVCRDMLNAFFLPDAETEAAMTLIEQQWQAIIAEGLGAQYGDAVPLSLLRDELAQRLDQERISQRFLAGPVNICTLMPMRSIPFKVVCLLGMNDGVYPRQLAPLGFDLMSQKPKRGDRSRRDDDRYLFLEALISAQQKLYISYIGRSIQDNSERFPSVLVQELIDYIGQSHYLPGDEALNCDESEARVKAHLTCLHTRMPFDPQNYQPGERQSYAREWLPAASQAGKAHSEFVQPLPFTLPETVPLETLQRFWAHPVRAFFQMRLQVNFRTEDSEIPDTEPFILEGLSRYQINQQLLNALVEQDDAERLFRRFRAAGDLPYGAFGEIFWETQCQEMQQLADRVIACRQPGQSMEIDLACNGVQITGWLPQVQPDGLLRWRPSLLSVAQGMQLWLEHLVYCASGGNGESRLFLRKDGEWRFPPLAAEQALHYLSQLIEGYREGMSAPLLVLPESGGAWLKTCYDAQNDAMLDDDSTLQKARTKFLQAYEGNMMVRGEGDDIWYQRLWRQLTPETMEAIVEQSQRFLLPLFRFNQS
For the molecule B1, the binding result was “binds”.
